Legend:
[1] = target: natural Fel d1 (cat (Felis domesticus)) (UniProt P30438); experiment: SPR Biacore T200 sequential binding, 25 µg/mL mAb2 over mAb1:Fel d1; coupled mAb1: REGN1909
[2] = target: natural Fel d1 (cat (Felis domesticus)) (UniProt P30438); experiment: cell-based or functional assay
[3] = target: Fel d1 (B-A)-mmH (cat (Felis domesticus)); experiment: blocking ELISA, Fel d1 binding to donor polyclonal cat-allergic IgE
[4] = target: natural Fel d1 (cat (Felis domesticus)) (UniProt P30438); experiment: blocking ELISA, Fel d1 binding to plate-captured polyclonal human IgE

Chain of Fel d1 (B-A)-mmH (cat (Felis domesticus)) (chain, as listed by the source limits assumed): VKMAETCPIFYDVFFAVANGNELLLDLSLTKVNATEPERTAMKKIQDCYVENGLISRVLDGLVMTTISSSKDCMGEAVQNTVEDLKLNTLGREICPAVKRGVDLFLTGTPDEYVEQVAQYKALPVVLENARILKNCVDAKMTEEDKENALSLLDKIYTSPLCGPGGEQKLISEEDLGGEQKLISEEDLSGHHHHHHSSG

Non-binding Control mAb (RU) [1] [RU]	basophil activation test, CD63 upregulation on basophils of cat-allergic donors, IC50 [2] [nM]	basophil activation test, CD203c upregulation on basophils of cat-allergic donors, IC50 [2] [nM]	phosphoflow assay, phosphorylation of ERK in basophils, inhibition [2] [%]	IC50 [3] [nM]	IC50 [4] [nM]	maximum blockade [4] [%]	Substance
-64	–	–	–	–	–	–	Non-binding Control mAb (antibody)
–	0.01	0.055	> 80	0.58	0.45	83	REGN1908-1909

— US20200255503A1
